Laboratory results published in the supplement of paper PMC7877785.
± gives the uncertainty stated by the source.

Experiment: self-splicing fitness, log relative to wild type (ln ratio); higher = more splicing; Tetrahymena group I intron in knt gene, E. coli kanamycin selection, DiMSum; sequences stand for … in CUCUCU…GGAGGGAAAAGUUAUCAGGCAUGCACCUGGUAGCUAGUCUUUAAACCAAUAGAUUGCAUCGGUUUAAAAGGCAAGACCGUCAAAUUGCGGGAAAGGGGUCAACAGCCGUUCAGUACCAAGUCUCAGGGGAAACUUUGAGAUGGCCUUGCAAAGGGUAUGGUAAUAAGCUGACGGACAUGGUCCUAACCACGCAGCCAAGUCCUAAGUCAACAGAUCUUCUGUUGAUAUGGAUGCAGUUCACAGACUAAAUGUCGGUCGGGGAAGAUGUAUUCUUCUCAUAAGAUAUAGUCGGACCUCUCCUUAAUGGGAGCUAGCGGAUGAAGUGAUGCAACACUGGAGCCGCUGGGAACUAAUUUGUAUGCGAAAGUAUAUUGAUUAGUUUUGGAGUACUCGUGGUCG
Outline: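 The eight P1ex-region nucleotides of an intron in the knt kanamycin-resistance gene on pET-22b(+) were all randomised and the library put into E. coli BL21(DE3). Six replicate transformations were grown overnight at 37°C or 30°C on LB agar with or without 25 μg/mL kanamycin, together with 100 μg/mL carbenicillin, 50 μM IPTG and 0.2% rhamnose. Colonies were pooled and amplicon-sequenced on an Illumina HiSeq 2500. Fitness from DiMSum is the error-weighted combination of wild-type-normalised replicate fold changes, kanamycin over none.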

Row | Sequence | self-splicing fitness (ln) (30 °C) | self-splicing fitness (ln) (37 °C)
1 | CUACAGCAAUAUUACGUCAC | -3.35 ± 0.36 | -2.13 ± 0.18
2 | CUACAGCAAUAUUACGUCGU | -3.3 ± 0.35 | -2.83 ± 0.25
3 | CUACAGCAAUAUUACGUGCC | -2.73 ± 0.26 | -2.39 ± 0.38
4 | CUACAGCAAUAUUACGUGGA | -2.58 ± 0.12 | -3.11 ± 0.21
5 | CUACAGCAAUAUUACGUUAC | -4.4 ± 0.26 | -3.72 ± 0.33
6 | CUACAGCAAUAUUACGUUAU | -3.96 ± 0.13 | -2.79 ± 0.15
7 | CUACAGCAAUAUUACGUUUG | -0.766 ± 0.04 | -0.34 ± 0.06
8 | CUAGAGCAAUAUUACGACAC | -3.9 ± 0.39 | -2.63 ± 0.48
9 | CUAGAGCAAUAUUACGACUC |  | -1.39 ± 0.48
10 | CUAGAGCAAUAUUACGCCAC |  | -3.44 ± 0.47
11 | CUAGAGCAAUAUUACGCCUA | -2.2 ± 0.14 | -1.15 ± 0.12
12 | CUAGAGCAAUAUUACGCGCC | -2.12 ± 0.38 | 
13 | CUAGAGCAAUAUUACGCGCU | -3.47 ± 0.23 | -2.19 ± 0.27
14 | CUAGAGCAAUAUUACGCUAG | -3.78 ± 0.34 | -2.49 ± 0.28
15 | CUAGAGCAAUAUUACGCUUG | -3.03 ± 0.21 | -1.83 ± 0.23
16 | CUAGAGCAAUAUUACGGCAU | -3.75 ± 0.19 | -2.75 ± 0.28
17 | CUAGAGCAAUAUUACGGCUG | 0.203 ± 0.11 | -0.255 ± 0.14
18 | CUAGAGCAAUAUUACGGUCA | -3.55 ± 0.23 | -2.47 ± 0.44
19 | CUAGAGCAAUAUUACGGUUA | -3.66 ± 0.24 | -3.14 ± 0.4
20 | CUAGAGCAAUAUUACGUAAG | -0.628 ± 0.06 | 0.154 ± 0.089
21 | CUAGAGCAAUAUUACGUACC | -4.52 ± 0.24 | -3.09 ± 0.35
22 | CUAGAGCAAUAUUACGUGCC | -2.84 ± 0.24 | -1.41 ± 0.24
23 | CUAGAGCAAUAUUACGUUCC |  | 0.291 ± 0.28
24 | CUAGAGCAAUAUUACGUUGC | -3.14 ± 0.32 | -2.18 ± 0.44
25 | CUAGAGCAAUAUUACGUUGG | -1.71 ± 0.11 | -0.638 ± 0.13

Row | Sequence | self-splicing fitness (ln) (30 °C) | self-splicing fitness (ln) (37 °C)
26 | CUAGAGCAAUAUUACGUUUC | -4.04 ± 0.31 | -2.01 ± 0.28
27 | CUAGAGCAAUAUUACGUUUG | -1.33 ± 0.088 | -0.528 ± 0.1
28 | CUAUAGCAAUAUUACGAACU | -3.67 ± 0.43 | 
29 | CUAUAGCAAUAUUACGAAUC | -2.05 ± 0.36 | -1.9 ± 0.33
30 | CUAUAGCAAUAUUACGAAUG | -0.481 ± 0.087 | 0.0255 ± 0.12
31 | CUAUAGCAAUAUUACGACAU | -4.157 ± 0.031 | -3.08 ± 0.045
32 | CUAUAGCAAUAUUACGACUU | -2.98 ± 0.3 | -1.54 ± 0.34
33 | CUAUAGCAAUAUUACGAUGU | -3.67 ± 0.4 | -3.04 ± 0.43
34 | CUAUAGCAAUAUUACGCAUA | -3.93 ± 0.29 | -2.68 ± 0.24
35 | CUAUAGCAAUAUUACGCGAA | -3.27 ± 0.2 | -3.06 ± 0.33
36 | CUAUAGCAAUAUUACGCGCG | -0.981 ± 0.2 | 0.458 ± 0.25
37 | CUAUAGCAAUAUUACGCGUC | -3.97 ± 0.34 | -2.71 ± 0.25
38 | CUAUAGCAAUAUUACGUAAC | -1.97 ± 0.42 | 
39 | CUAUAGCAAUAUUACGUAAU | -2.07 ± 0.16 | -3.88 ± 0.36
40 | CUAUAGCAAUAUUACGUACG | 0.0512 ± 0.15 | -0.136 ± 0.14
41 | CUAUAGCAAUAUUACGUCCU | -3.39 ± 0.22 | -2.7 ± 0.29
42 | CUCAAGCAAUAUUACGAAUG | -2.96 ± 0.15 | -1.66 ± 0.2
43 | CUCAAGCAAUAUUACGACCG | -1.26 ± 0.12 | -0.638 ± 0.16
44 | CUCAAGCAAUAUUACGAUCA | -1.3 ± 0.3 | -1.09 ± 0.2
45 | CUCAAGCAAUAUUACGCGAG | -2.5 ± 0.2 | -3.14 ± 0.3
46 | CUCAAGCAAUAUUACGCGCG | -3.19 ± 0.18 | -2.41 ± 0.29
47 | CUCAAGCAAUAUUACGCGUU | -4.07 ± 0.46 | -2.92 ± 0.3
48 | CUCAAGCAAUAUUACGGAGC | -3.11 ± 0.11 | -2.54 ± 0.14
49 | CUCAAGCAAUAUUACGGAUA | -2.72 ± 0.24 | -2.32 ± 0.28
